This note sets out measurements from patent publication US20210379147A1, “METHOD AND SYSTEM FOR TREATING CANCER UTILIZING TINAGL1” (The Trustees of Princeton University, priority 2018, published 2021).

One experiment concerns EGFR and FAK pathways. In words: EGFR and FAK pathway activation in SUM159-M1a cells on FN (WB, FIG. 12). Format: cell-based, human. The procedure: FIG. 12 is an image of WB analyses where a 6-well plate was coated with 10 μg/ml of FN or 10 μg/ml of FN+r-Tinagl1, then SUM159-M1a cells were serum starved for 24 hr, and then seeded on the plate with the media contain 10% FBS and 1 ng/ml of EGF, and then 3 hr after seeding, the cells were treated with […] FAK inhibitor 14 (FAKi) for 2 hr, followed by 1 hr treatment of 100 nM Erlotinib (Erlo), 1 μg/ml r-Tinagl1 alone or combined, and finally the cells were treated with 1 ng/ml of EGF for another 10 min, and then collected for WB analysis.
Furthermore, p-AKT and p-ERK levels were lowered in r-Tinagl1 treated samples that samples treated with either FAK inhibitor 14 (FAKi) and or EGFR inhibitor Erlotinib (Erlo) alone.

The test system of a further experiment is LM2 cells. In words: LM2 orthotopic tumors, single or combined agent treatment. The format is in vivo, NSG female mice. On the procedure: FIG. 17A is an image of WB analyses where NSG female mice were injected with 10^4 LM2 cells by MFP injection, and intravenously treated with the indicated reagents twice per week when tumors reached to 2 mm in dimeter, then after 5 weeks of the treatments, the primary tumors of each group were collected and activation of EGFR and FAK in primary tumor of each group were tested by WB.
FIG. 17B is a graph illustrating tumor volumes of each treatment group from FIG. 17A.
FIG. 17C is a graph, quantifying ex vivo BLI results where lungs in mice from FIG. 17A were collected and spontaneous metastasis was examined at the endpoint.
Two molecular targeting reagents, ATN-161 (ATN) and Erlotinib (Erlo) were employed. ATN is an integrin α5β1 antagonist that inhibits the integrin signaling pathway and slows tumor progression. Erlotinib is a well-established small molecular inhibitor of EGFR and is clinically approved for cancer treatment. Mice orthotopically implanted with LM2 cells were split into 6 groups after the tumors reached 2 mm in diameter and subjected to various single or combined agent treatments twice per week [(1) PBS; (2) ATN 30 μg/mouse; (3) Erlo 100 mg/kg; (4) r-Tinagl1 30 μg/mouse; (5) ATN and Erlo; and (6) ATN, Erlo, and r-Tinagl1]. Referring to FIG. 17A, the inhibition of integrin/FAK and EGFR upon each treatment was validated by western blotting and TIC staining.
For xenograft studies, 8-weeks immunocompromised NOD Scid Gamma (NSG) or immunocompetent FVB females were used. Cells were suspended in 10 μl of PBS for mammary gland injection (MFP), or were suspended in 100 μl of PBS for intravenous injection. For human patient-derived xenograft (PDX, HCL001, kindly provided by Dr. Alana Welm) study, we followed the standard protocol for PDX transplantation, maintenance and digestion of the tumors (DeRose et al., 2011). 2×10^4 cells were suspended in 10 μl of PBS and subjected to MFP injection. For recombinant Tinagl1 (r-Tinagl1), ATN-161, Erlotinib treatments, the mice were injected with 30 μg/mouse, 30 μg/mouse, and 100 mg/kg respectively twice per week via tail-vein. Primary tumors were quantified once per week via caliper measurement. All cell lines used for lung metastasis experiments were stably labeled with a firefly luciferase expressing vector and were monitored by weekly bioluminescent imaging (BLI). At protocol-defined endpoints, lungs were dissected and fixed in bouin's solution and the metastatic lesions were counted.

B1: r-Tinagl1: full length recombinant human Tinagl1 with 6×His tag at the C-terminus [SEQ ID NO.: 24], expressed in HEK293T cells (protein, listed as Homo sapiens)
chain: MWRCPLGLLLLLPLAGHLALGAQQGRGRRELAPGLHLRGIRDAGGRYCQEQDLCCRGRADDCALPYLGAICYCDLFCNRTVSDCCPDFWDFCLGVPPPFPPIQGCMHGGRIYPVLGTYWDNCNRCTCQENRQWQCDQEPCLVDPDMIKAINQGNYGWQAGNHSAFWGMTLDEGIRYRLGTIRPSSSVMNMHEIYTVLNPGEVLPTAFEASEKWPNLIHEPLDQGNCAGSWAFSTAAVASDRVSIHSLGHMTPVLSPQNLLSCDTHQQQGCRGGRLDGAWWFLRRRGVVSDHCYPFSGRERDEAGPAPPCMMHSRAMGRGKRQATAHCPNSYVNNNDIYQVTPVYRLGSNDKEIMKELMENGPVQALMEVHEDFFLYKGGIYSHTPVSLGRPERYRRHGTHSVKITGWGEETLPDGRTLKYWTAANSWGPAWGERGHFRIVRGVNECDIESFVLGVWGRVGMEDMGHHVDHHHHHH
modifications: C-terminal 6xHis tag
For the molecule B1, the “activation of EGFR and FAK pathways (p-EGFR, p-FAK, p-ERK, p-AKT)” value in the experiment on EGFR and FAK pathways (1 μg/ml r-Tinagl1, 1 hr) was “inhibited the activation of both EGFR and FAK pathways”. Further, the “p-AKT and p-ERK levels versus FAKi or Erlo alone” value in the experiment on EGFR and FAK pathways (FAKi, 100 nM Erlo, 1 μg/ml r-Tinagl1) is given as “lowered”. The primary tumor growth result in the experiment with LM2 cells (LM2, twice per week, ATN 30 μg/mouse, Erlo 100 mg/kg, r-Tinagl1 30 μg/mouse) is “significantly suppressed primary tumor growth”. For the same molecule, the spontaneous lung metastasis entry with LM2 cells (LM2 tumors, ex vivo BLI at endpoint) was “reduced spontaneous lung metastasis”.
